Reference: patent publication US20040048790A1 (published 2004)
Read-outs that look alike come from different tables or passages of the source. Blank lines part the entries; values can stand above or below the binder they belong to. Non-standard residues stand in square brackets, D forms with d. No end group written: not given here. Abu = CC[C@H](N)C(=O)O

How the values were obtained:
HLA-B*0702 [1] = target: HLA-B*0702 (human); experiment: 125I-probe peptide inhibition, purified HLA
HLA-B*3501 = HLA-B*3501 (human); experiment: 125I-probe peptide inhibition, purified HLA
HLA-B*5401 [2] = target: HLA-B*5401 (human); experiment: 125I-probe peptide inhibition, purified HLA
HLA-B*5301 [3] = target: HLA-B*5301 (human); experiment: competition vs 125I probe peptide, purified HLA
HLA-B*5401 [4] = target: HLA-B*5401 (human); experiment: competition vs 125I probe peptide, purified HLA
HLA-B*5301 [5] = target: HLA-B*5301 (human); experiment: 125I-probe peptide inhibition, purified HLA
HLA-A*6801 = HLA-A*6801 (human); experiment: 125I-probe peptide inhibition, purified HLA
HLA-A*2402 = HLA-A*2402 (human); experiment: competition vs 125I probe peptide, purified HLA
HLA-B*5101 [6] = target: HLA-B*5101 (human); experiment: 125I-probe peptide inhibition, purified HLA
HLA-A*0206 [7] = target: HLA-A*0206 (human); experiment: 125I-probe peptide inhibition, purified HLA
HLA-A*0203 = HLA-A*0203 (human); experiment: 125I-probe peptide inhibition, purified HLA
HLA-A*0206 [8] = target: HLA-A*0206 (human); experiment: 125I-probe peptide inhibition, purified HLA; remark: listed apart in the source
HLA-B*5101 [9] = target: HLA-B*5101 (human); experiment: competition vs 125I probe peptide, purified HLA
HLA-B*0702 [10] = target: HLA-B*0702 (human); experiment: competition vs 125I probe peptide, purified HLA

- IC50 (HLA-B*0702 [1]): 0.8 nM
- IC50 (HLA-B*3501): 28 nM
- IC50 (HLA-B*5401 [2]): 1.1 nM
B1: p53.74.F1 (10-mer) (peptide)
peptide: FPAPAAPTPA

- IC50 (HLA-B*5301 [3]): 93 nM
- IC50 (HLA-B*5401 [4]): 0.3 nM
B2: p53.88.F1 (peptide)
peptide: FPSWPLSSSV

- IC50 (HLA-B*5301 [5]): 8.5 nM
- IC50 (HLA-B*5401 [2]): 2.4 nM
B3: p53.88.F1110 (peptide)
peptide: FPSWPLSSSI

- IC50 (HLA-B*5301 [5]): 5470 nM
- IC50 (HLA-B*5401 [2]): 2.9 nM
B4: p53.63.F1111 (peptide)
peptide: FPRMPEAAPPI

- IC50 (HLA-B*5401 [2]): 0.3 nM
B5: p53.63F1 (peptide)
peptide: FPRMPEAAPPV

- IC50 (HLA-B*5401 [2]): 1.2 nM
B6: p53.84.F1110 (peptide)
peptide: FPAPAPSWPI

- IC50 (HLA-B*3501): 5.1 nM
- IC50 (HLA-B*5401 [2]): 1.7 nM
B7: p53.84.F1 (peptide)
peptide: FPAPAPSWPL

- IC50 (HLA-A*6801): 140 nM
B8: p53.240 (9-mer SSBMGGMNK) (peptide)
peptide: SS[Abu]MGGMNK

- IC50 (HLA-B*0702 [1]): 290 nM
- IC50 (HLA-B*5401 [2]): 63 nM
B9: p53.70.F1110 (peptide)
peptide: FPPVAPAPAI

- IC50 (HLA-B*0702 [1]): 87 nM
- IC50 (HLA-B*5401 [2]): 2.1 nM
B10: p53.74.F1 (11-mer) (peptide)
peptide: FPAPAAPTPAA

- IC50 (HLA-A*2402): 30 nM
B11: p53.102.F10 (peptide)
peptide: TYQGSYGFRF

- IC50 (HLA-B*0702 [1]): 120 nM
- IC50 (HLA-B*3501): 4.8 nM
- IC50 (HLA-B*5301 [5]): 3.3 nM
- IC50 (HLA-B*5401 [2]): 1.6 nM
B12: p53.86.F118 (peptide)
peptide: FPAPSWPI

- IC50 (HLA-B*3501): 3.1 nM
- IC50 (HLA-B*5301 [5]): 4 nM
- IC50 (HLA-B*5401 [2]): 9.1 nM
B13: p53.86.F1 (peptide)
peptide: FPAPSWPL

- IC50 (HLA-B*0702 [1]): 34 nM
- IC50 (HLA-B*5401 [2]): 1.3 nM
B14: p53.76.F1 (11-mer) (peptide)
peptide: FPAAPTPAAPA

- IC50 (HLA-B*5101 [6]): 809 nM
- IC50 (HLA-B*5301 [5]): 620 nM
- IC50 (HLA-B*5401 [2]): 1 nM
B15: p53.76.F1 (9-mer) (peptide)
peptide: FPAAPTPAA

- IC50 (HLA-A*0206 [7]): 67 nM
B16: p53.135B1B7 (peptide)
peptide: [Abu]QLAKT[Abu]PV

- IC50 (HLA-A*0203): 7.7 nM
- IC50 (HLA-A*0206 [8]): 64 nM
B17: p53.135B1L2B7 (peptide)
peptide: [Abu]LLAKT[Abu]PV

- IC50 (HLA-B*0702 [1]): 90 nM
- IC50 (HLA-B*5301 [5]): 6200 nM
- IC50 (HLA-B*5401 [2]): 7.7 nM
B18: p53.79.F118 (peptide)
peptide: FPTPAAPI

- IC50 (HLA-B*5101 [9]): 220 nM
B19: p53.127.F1I8 (peptide)
peptide: FPALNKMI

- IC50 (HLA-B*3501): 720 nM
- IC50 (HLA-B*5301 [5]): 291 nM
- IC50 (HLA-B*5401 [2]): 83 nM
B20: p53.33.F1 (peptide)
peptide: FPLPSQAI

- IC50 (HLA-B*0702 [10]): 74 nM
- IC50 (HLA-B*5101 [9]): 9 nM
- IC50 (HLA-B*5301 [3]): 4 nM
- IC50 (HLA-B*5401 [4]): 1.8 nM
B21: p53.249.F1I9 (peptide)
peptide: FPILTIITI

- IC50 (HLA-B*0702 [10]): 6.5 nM
- IC50 (HLA-B*5401 [4]): 5 nM
B22: p53.249.F1 (peptide)
peptide: FPILTIITL
